# In publication PMC4243253:
# Test system: N[C@@H](CC(=O)c1ccccc1NC=O)C(=O)O
# Assay: purified protein
# Settings: 0.1 M sodium phosphate, pH 7.4, 20 μM ZnCl2, 25°C
substance,measurement,value
PaKynB-His (Pseudomonas aeruginosa PAO1),Km,980 ± 130 µM
same,Vmax,0.148 µmol/min
same,kcat,114 s⁻¹
same,kcat/Km,116000 M⁻¹ s⁻¹
